Results reported in the supplement of paper PMC7877785.
± gives the uncertainty stated by the source.

Assay: self-splicing fitness, log relative to wild type (ln ratio); higher = more splicing; Tetrahymena group I intron in knt gene, E. coli kanamycin selection, DiMSum; sequences stand for … in CUCUCU…GGAGGGAAAAGUUAUCAGGCAUGCACCUGGUAGCUAGUCUUUAAACCAAUAGAUUGCAUCGGUUUAAAAGGCAAGACCGUCAAAUUGCGGGAAAGGGGUCAACAGCCGUUCAGUACCAAGUCUCAGGGGAAACUUUGAGAUGGCCUUGCAAAGGGUAUGGUAAUAAGCUGACGGACAUGGUCCUAACCACGCAGCCAAGUCCUAAGUCAACAGAUCUUCUGUUGAUAUGGAUGCAGUUCACAGACUAAAUGUCGGUCGGGGAAGAUGUAUUCUUCUCAUAAGAUAUAGUCGGACCUCUCCUUAAUGGGAGCUAGCGGAUGAAGUGAUGCAACACUGGAGCCGCUGGGAACUAAUUUGUAUGCGAAAGUAUAUUGAUUAGUUUUGGAGUACUCGUGGUCG
Method in brief: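 Colonies from six replicate transformations of E. coli BL21(DE3) were pooled and amplicon-sequenced on an Illumina HiSeq 2500. The library placed an intron with all eight P1ex-region nucleotides randomised inside the knt kanamycin-resistance gene on pET-22b(+), and cells grew overnight at 37°C or 30°C on LB agar with or without 25 μg/mL kanamycin (plus 100 μg/mL carbenicillin, 50 μM IPTG, 0.2% rhamnose). Fitness is the DiMSum error-weighted combination of wild-type-normalised replicate fold changes, kanamycin versus none.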

| Sequence | self-splicing fitness (ln) (30 °C) | self-splicing fitness (ln) (37 °C) |
| --- | --- | --- |
| GGGCAGCAAUAUUACGGGCA | -2.14 ± 0.13 | -0.0115 ± 0.09 |
| GGGCAGCAAUAUUACGGGCU | -3.06 ± 0.14 | -2.04 ± 0.18 |
| GGGCAGCAAUAUUACGGUCU | -3.22 ± 0.26 | -1.03 ± 0.24 |
| GGGCAGCAAUAUUACGUCAC | – | -1.18 ± 0.42 |
| GGGCAGCAAUAUUACGUCCC | -2.38 ± 0.46 | – |
| GGGCAGCAAUAUUACGUGUA | -2.19 ± 0.15 | -0.515 ± 0.12 |
| GGGCAGCAAUAUUACGUUCU | -2.35 ± 0.19 | -1.2 ± 0.14 |
| GGGCAGCAAUAUUACGUUGG | -3.05 ± 0.16 | -1.65 ± 0.15 |
| GGGGAGCAAUAUUACGACCG | -1.02 ± 0.41 | – |
| GGGGAGCAAUAUUACGAGGU | -3.44 ± 0.22 | -1.82 ± 0.26 |
| GGGGAGCAAUAUUACGCAGG | – | -2.08 ± 0.46 |
| GGGGAGCAAUAUUACGCAGU | – | -1.35 ± 0.36 |
| GGGGAGCAAUAUUACGCAUU | -3.09 ± 0.27 | -1.93 ± 0.21 |
| GGGGAGCAAUAUUACGCCUU | – | -0.939 ± 0.35 |
| GGGGAGCAAUAUUACGCGGA | -2.24 ± 0.32 | -2.59 ± 0.36 |
| GGGGAGCAAUAUUACGGAAC | – | -2.95 ± 0.26 |
| GGGGAGCAAUAUUACGGGCA | -2.87 ± 0.34 | -1.47 ± 0.26 |
| GGGGAGCAAUAUUACGUAUC | -2.03 ± 0.2 | -2.19 ± 0.37 |
| GGGGAGCAAUAUUACGUCUC | -1.64 ± 0.4 | – |
| GGGGAGCAAUAUUACGUCUU | -1.91 ± 0.12 | -0.96 ± 0.18 |
| GGGGAGCAAUAUUACGUGGA | -2.04 ± 0.35 | -2.48 ± 0.39 |
| GGGGAGCAAUAUUACGUGUU | -3.92 ± 0.35 | -2.29 ± 0.27 |
| GGGGAGCAAUAUUACGUUCG | -2.01 ± 0.18 | -0.941 ± 0.16 |

| Sequence | self-splicing fitness (ln) (30 °C) | self-splicing fitness (ln) (37 °C) |
| --- | --- | --- |
| GGGUAGCAAUAUUACGAAGA | -1.72 ± 0.21 | -1.62 ± 0.21 |
| GGGUAGCAAUAUUACGAAUU | -1.04 ± 0.084 | -0.438 ± 0.11 |
| GGGUAGCAAUAUUACGACAG | -2.84 ± 0.2 | -1.9 ± 0.21 |
| GGGUAGCAAUAUUACGACCU | -2.3 ± 0.36 | – |
| GGGUAGCAAUAUUACGACGG | – | -1.18 ± 0.44 |
| GGGUAGCAAUAUUACGAGCA | -0.991 ± 0.2 | 0.0569 ± 0.17 |
| GGGUAGCAAUAUUACGAUUG | -1.63 ± 0.23 | -2.13 ± 0.25 |
| GGGUAGCAAUAUUACGCAUA | – | -0.676 ± 0.24 |
| GGGUAGCAAUAUUACGCAUG | -1.68 ± 0.18 | -2.73 ± 0.32 |
| GGGUAGCAAUAUUACGCCAG | – | -2.81 ± 0.47 |
| GGGUAGCAAUAUUACGCCAU | -2.4 ± 0.26 | -1.32 ± 0.19 |
| GGGUAGCAAUAUUACGCGGG | -2.2 ± 0.26 | -2.42 ± 0.23 |
| GGGUAGCAAUAUUACGGCGA | -0.516 ± 0.1 | 0.326 ± 0.12 |
| GGGUAGCAAUAUUACGGCUA | -0.886 ± 0.24 | -1.24 ± 0.22 |
| GGGUAGCAAUAUUACGGGAC | -2.79 ± 0.2 | -0.633 ± 0.13 |
| GGGUAGCAAUAUUACGGUCA | 0.229 ± 0.18 | -0.659 ± 0.18 |
| GGGUAGCAAUAUUACGUAAA | -0.962 ± 0.13 | -0.0364 ± 0.15 |
| GGGUAGCAAUAUUACGUAGA | -1.89 ± 0.17 | -0.619 ± 0.15 |
| GGGUAGCAAUAUUACGUAUG | – | -1.84 ± 0.19 |
| GGGUAGCAAUAUUACGUUCU | -0.416 ± 0.11 | -0.164 ± 0.13 |
| GGUAAGCAAUAUUACGAAAC | -1.48 ± 0.14 | -0.179 ± 0.12 |
| GGUAAGCAAUAUUACGAAGC | -3.07 ± 0.23 | -0.664 ± 0.23 |
| GGUAAGCAAUAUUACGAAGG | -3.74 ± 0.25 | -2.84 ± 0.25 |
